Data taken from publication PMC3273806 (Nucleic Acids Research, 2011).

B1: ^HisRAD18^ΔN1 (residues 113-495) (domain or fragment)
chain: AVKVYTPVASRQSLKQGSRLMDNFLIREMSGSTSELLIKENKSKFSPQKEASPAAKTKETRSVEEIAPDPSEAKRPEPPSTSTLKQVTKVDCPVCGVNIPESHINKHLDSCLSREEKKESLRSSVHKRKPLPKTVYNLLSDRDLKKKLKEHGLSIQGNKQQLIKRHQEFVHMYNAQCDALHPKSAAEIVREIENIEKTRMRLEASKLNESVMVFTKDQTEKEIDEIHSKYRKKHKSEFQLLVDQARKGYKKIAGMSQKTVTITKEDESTEKLSSVCMGQEDNMTSVTNHFSQSKLDSPEELEPDREEDSSSCIDIQEVLSSSESDSCNSSSSDIIRDLLEEEEAWEASHKNDLQDTEISPRQNRRTRAAESAEIEPRNKRNRN
B2: RAD18^ΔC1 (residues 1-341), His-tagged or FLAG-tagged (domain or fragment)
chain: MDSLAESRWPPGLAVMKTIDDLLRCGICFEYFNIAMIIPQCSHNYCSLCIRKFLSYKTQCPTCCVTVTEPDLKNNRILDELVKSLNFARNHLLQFALESPAKSPASSSSKNLAVKVYTPVASRQSLKQGSRLMDNFLIREMSGSTSELLIKENKSKFSPQKEASPAAKTKETRSVEEIAPDPSEAKRPEPPSTSTLKQVTKVDCPVCGVNIPESHINKHLDSCLSREEKKESLRSSVHKRKPLPKTVYNLLSDRDLKKKLKEHGLSIQGNKQQLIKRHQEFVHMYNAQCDALHPKSAAEIVREIENIEKTRMRLEASKLNESVMVFTKDQTEKEIDEIHSK

Assays:
human RAD6A = human RAD6A (human, UniProt P49459 1-152); test: pull-down
[1] = target: human RAD18, wild type, His-tagged or FLAG-tagged (human, UniProt Q9NS91 1-495); test: pull-down

Binder | binding result (human RAD6A) | binding result [1]
B1 | binds | 
B2 |  | binds
